Measurements from PMC3834196, “High Resolution Crystal Structure of Human β-Glucuronidase Reveals Structural Basis of Lysosome Targeting” (PLoS ONE, 2013).

Biological target: the molecule itself
Experiment: crystal structure; vapor diffusion, 50 mM Tris pH 7.5, 15% MPD, 25°C; four monomers (A, B, D, E) in the asymmetric unit; refined to 1.7 Å

B1: Human β-glucuronidase (enzyme, UniProt P08236 23-651, looked up)
chain: LQGGMLYPQESPSRECKELDGLWSFRADFSDNRRRGFEEQWYRRPLWESGPTVDMPVPSSFNDISQDWRLRHFVGWVWYEREVILPERWTQDLRTRVVLRIGSAHSYAIVWVNGVDTLEHEGGYLPFEADISNLVQVGPLPSRLRITIAINNTLTPTTLPPGTIQYLTDTSKYPKGYFVQNTYFDFFNYAGLQRSVLLYTTPTTYIDDITVTTSVEQDSGLVNYQISVKGSNLFKLEVRLLDAENKVVANGTGTQGQLKVPGVSLWWPYLMHERPAYLYSLEVQLTAQTSLGPVSDFYTLPVGIRTVAVTKSQFLINGKPFYFHGVNKHEDADIRGKGFDWPLLVKDFNLLRWLGANAFRTSHYPYAEEVMQMCDRYGIVVIDECPGVGLALPQFFNNVSLHHHMQVMEEVVRRDKNHPAVVMWSVANEPASHLESAGYYLKMVIAHTKSLDPSRPVTFVSNSNYAADKGAPYVDVICLNSYYSWYHDYGHLELIQLQLATQFENWYKKYQKPIIQSEYGAETIAGFHQDPPLMFTEEYQKSLLEQYHLGLDQKRRKYVVGELIWNFADFMTEQSPTRVLGNKKGIFTRQRQPKSAAFLLRERYWKIANETRYPHSVAKSQCLENSLFT
modifications: N-linked oligosaccharide at Asn173 (six mannose, one β-D-mannose, three N-acetyl glucosamine); single N-acetyl-glucopyranose at Asn272 (as seen in the electron density)
notes: β-glucuronidase, human, UniProt P08236; secreted enzyme; the final model holds residues 22 to 631 of each subunit; Homotetramer (subunits A, B, D, E) in the crystal; also called GUS; human GUS; source: CHO-K1, stably transfected, secreted
stoichiometry N: 4
